These results are taken from paper doi:10.1101/218669.

The assay has as its target Pragmin 906-1368 (Pragmin C) (Rattus norvegicus) (UniProt D3ZMK9). As to the kind of experiment: MALLS + DLS + SAXS.

In general, stoichiometry N refers to a count of units in the complex or per binding partner. For “Pragmin 906-1368 (Pragmin C) (from UniProt D3ZMK9 906-1368) (domain or fragment)”, the stoichiometry N is 2.
